PMC7897507

How the values were obtained:
[1] = system: EcSSB H55Y (Escherichia coli); assay: optical tweezers; settings: 5 nM monomeric H55Y, k-b/kb, 12 pN, 50 mM Na+, 10 mM HEPES pH 7.5, room temperature, ssDNA at 12 pN unless stated, Mg2+ buffer adds 4 mM Mg2+, AFM 10 mM Na+, 10 mM Mg2+
[2] = system: EcSSB WT (Escherichia coli); assay: optical tweezers; settings: 12 pN, 50 mM Na+, 10 mM HEPES pH 7.5, room temperature, ssDNA at 12 pN unless stated, Mg2+ buffer adds 4 mM Mg2+, AFM 10 mM Na+, 10 mM Mg2+

## 8.1 knt ssDNA (pBACgus11)
[1]
  Kd: 0.1 nM
[2]; EcSSB8 mode, fit of equilibrium fractions (Fig. 2C)
  Kd: 0.04 nM
[2]; single-domain unwrapped EcSSB8 mode, from k-b/kb
  Kd: 0.08 nM
